The supplement of paper PMC10065799, “High-throughput profiling of sequence recognition by tyrosine kinases and SH2 domains using bacterial peptide display” (eLife, 2023)

Test system: c-Abl (mouse)
Experiment: phosphorylation enrichment, bacterial display (enrichment ratio); higher = better substrate or ligand; peptides without Tyr show the background
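Note: 11-residue human phosphosite peptides and single-mutation variants displayed on the E. coli surface, counted by deep sequencing, each peptide's frequency after selection divided by its frequency in the unselected input library; frequency after pTyr selection over input frequency; kinase dosed for 20-30% of maximal phosphorylation in three min.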

Row | Sequence | phosphorylation enrichment
1 | QRRLVYFEGGA [RYR1_Y245_YF] | 0.912
2 | TFACSYTPVKA [FLNB_Y708_YF] | 0.961
3 | RETPLYKACER [ASB2_Y162] | 1.02
4 | DVYVSYDCGKS [SORL1_Y139_Y141C] | 0.862
5 | PSELYYSKISP [SMG1_Y2254_G2258S] | 4.3
6 | NEKNIYGVPLM [BMPR2_Y247_R248G] | 19.6
7 | YPRTGYSVPYG [TGM1_Y370_L366P] | 0.681
8 | FGSGNYNDFGN [HNRNPA2B1_Y300_YF] | 0.876
9 | INPIIYAFVGE [CCR5_Y297] | 10.4
10 | KLIMECLPYGS [JAK2_Y931_Y931C] | 0.738
11 | FGVVGYLAIVF [RNF175_Y155_M159V] | 1.1
12 | ADDSFYTVRSA [ZAP70_Y493_A495V_YF] | 0.734
13 | ERNTVYSSSGV [NELL2_Y350] | 0.521
14 | FGAHKYHPLPV [OAT_Y55_N54K_YF] | 0.443
15 | WFPYTYVEEDE [VAV3_Y842_S840Y] | 0.746
16 | EVNETYVPKEF [ALB_Y521_D518N] | 0.851
17 | VAFVFYKSIGP [ADGRL4_Y302_YF] | 1.04

Row | Sequence | phosphorylation enrichment
18 | SILAVYSKDIF [PANK2_Y400_N404I_YF] | 0.578
19 | LARDMCDKEYY [MET_Y1230_Y1230C] | 1.06
20 | DNQYAYLKAII [HNF4A_Y288_E285Q] | 3.75
21 | AEPPDYSPVTH [ADGRG2_Y285] | 0.792
22 | HFPDVYAREQL [ALX3_Y181_YF] | 0.667
23 | RRNNSYTCYTA [SLC20A2_Y386] | 1.02
24 | LLIVEYAKFGS [RET_Y806_YF] | 1.67
25 | RLVVVYPWTQR [HBB_Y36_L33V] | 0.846
26 | SEHLIYLEFKS [RASGRP1_Y215_T214I] | 6.39
27 | LDLSFYTTSSS [EMD_Y182_P183T_YF] | 2.47
28 | SVMAEYGLYGA [VSX2_Y219] | 0.628
29 | CTTIHDNFMCN [TP53_Y234_Y234D_YF] | 0.631
30 | LRKQDYQEILD [SLC35G2_Y403] | 0.629
31 | RLRIDYERVSQ [DSP_Y1542] | 0.742
32 | YHLLPYTIRAM [PARS2_Y93_V95I] | 25.4
33 | PFNAEYGGGGG [AKR1B10_Y316] | 0.43

Biological target: FGFR3 (UniProt P22607)
Sequence (P22607 whole entry, looked up): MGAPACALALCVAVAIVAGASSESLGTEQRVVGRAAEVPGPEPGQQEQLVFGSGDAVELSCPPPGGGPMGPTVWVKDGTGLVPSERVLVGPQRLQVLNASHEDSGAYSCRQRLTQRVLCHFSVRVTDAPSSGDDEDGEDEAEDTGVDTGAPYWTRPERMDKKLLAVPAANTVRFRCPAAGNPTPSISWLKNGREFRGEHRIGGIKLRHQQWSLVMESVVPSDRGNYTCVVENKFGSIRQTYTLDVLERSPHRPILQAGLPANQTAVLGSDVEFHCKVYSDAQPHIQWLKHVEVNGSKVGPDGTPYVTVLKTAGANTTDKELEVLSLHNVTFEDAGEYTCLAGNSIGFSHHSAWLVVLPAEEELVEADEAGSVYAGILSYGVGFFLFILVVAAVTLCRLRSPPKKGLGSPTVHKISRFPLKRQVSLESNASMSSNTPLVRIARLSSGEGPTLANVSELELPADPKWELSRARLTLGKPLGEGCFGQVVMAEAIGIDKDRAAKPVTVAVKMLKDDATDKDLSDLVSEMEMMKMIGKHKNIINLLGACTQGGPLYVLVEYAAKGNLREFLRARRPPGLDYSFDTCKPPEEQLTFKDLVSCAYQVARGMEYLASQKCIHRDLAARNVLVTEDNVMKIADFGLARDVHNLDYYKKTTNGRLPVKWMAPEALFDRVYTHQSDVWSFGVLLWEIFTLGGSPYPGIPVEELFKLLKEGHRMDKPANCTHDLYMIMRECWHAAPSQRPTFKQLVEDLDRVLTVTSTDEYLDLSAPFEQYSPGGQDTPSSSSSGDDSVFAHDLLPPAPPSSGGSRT
Experiment: as above

Row | Sequence | phosphorylation enrichment
34 | QRRLVYFEGGA [RYR1_Y245_YF] | 0.902
35 | TFACSYTPVKA [FLNB_Y708_YF] | 0.653
36 | RETPLYKACER [ASB2_Y162] | 0.759
37 | DVYVSYDCGKS [SORL1_Y139_Y141C] | 1.81
38 | PSELYYSKISP [SMG1_Y2254_G2258S] | 8.81
39 | NEKNIYGVPLM [BMPR2_Y247_R248G] | 0.624
40 | YPRTGYSVPYG [TGM1_Y370_L366P] | 0.545
41 | FGSGNYNDFGN [HNRNPA2B1_Y300_YF] | 0.505
42 | INPIIYAFVGE [CCR5_Y297] | 2.75
43 | KLIMECLPYGS [JAK2_Y931_Y931C] | 0.766
44 | FGVVGYLAIVF [RNF175_Y155_M159V] | 1.14
45 | ADDSFYTVRSA [ZAP70_Y493_A495V_YF] | 0.748
46 | ERNTVYSSSGV [NELL2_Y350] | 0.679
47 | FGAHKYHPLPV [OAT_Y55_N54K_YF] | 0.544
48 | WFPYTYVEEDE [VAV3_Y842_S840Y] | 1.72
49 | EVNETYVPKEF [ALB_Y521_D518N] | 0.796
50 | VAFVFYKSIGP [ADGRL4_Y302_YF] | 0.781

Row | Sequence | phosphorylation enrichment
51 | SILAVYSKDIF [PANK2_Y400_N404I_YF] | 0.537
52 | LARDMCDKEYY [MET_Y1230_Y1230C] | 0.828
53 | DNQYAYLKAII [HNF4A_Y288_E285Q] | 1.91
54 | AEPPDYSPVTH [ADGRG2_Y285] | 0.786
55 | HFPDVYAREQL [ALX3_Y181_YF] | 0.514
56 | RRNNSYTCYTA [SLC20A2_Y386] | 0.536
57 | LLIVEYAKFGS [RET_Y806_YF] | 1.36
58 | RLVVVYPWTQR [HBB_Y36_L33V] | 1.1
59 | SEHLIYLEFKS [RASGRP1_Y215_T214I] | 1.77
60 | LDLSFYTTSSS [EMD_Y182_P183T_YF] | 1.53
61 | SVMAEYGLYGA [VSX2_Y219] | 0.57
62 | CTTIHDNFMCN [TP53_Y234_Y234D_YF] | 0.592
63 | LRKQDYQEILD [SLC35G2_Y403] | 0.708
64 | RLRIDYERVSQ [DSP_Y1542] | 0.878
65 | YHLLPYTIRAM [PARS2_Y93_V95I] | 13.8
66 | PFNAEYGGGGG [AKR1B10_Y316] | 0.802
